Test results: the RNAGym collection of RNA variant scans (doi:10.7554/elife.80360)

B1: HDV Ribozyme (parent)
chain: GGCCGGCAUGGUCCCAGCCUCCUCGCUGGCGCCGGCUGGGCAACAUUCCGAGGGGACCGUCCCCUCGGUAAUGGCGAAUGGGACCCA

Variants of: B1
Assay: self-cleavage, relative activity (ratio to wild type); higher = more cleavage; co-transcriptional

| Variant | self-cleavage |
| --- | --- |
| G1A | 0.143 |
| G1A A8G | 0.166 |
| G1A A42C | 0.0369 |
| G1A A42U | 0.123 |
| G1A A45U | 0.208 |
| G1A A51C | 0.0831 |
| G1A A71C | 0.145 |
| G1A A71U | 0.256 |
| G1A C4G | 0.123 |
| G1A C4U | 0.252 |
| G1A C7U | 0.0475 |
| G1A C15A | 0.0923 |
| G1A C15U | 0.0665 |
| G1A C18G | 0 |
| G1A C18U | 0.0475 |
| G1A C19G | 0.0875 |
| G1A C22G | 0.0978 |
| G1A C30A | 0.0875 |
| G1A C44A | 0.0426 |
| G1A C48A | 0 |
| G1A C58G | 0.0665 |
| G1A C58U | 0.158 |
| G1A C62U | 0.0791 |
| G1A C63G | 0.249 |

| Variant | self-cleavage |
| --- | --- |
| G1A C64G | 0.095 |
| G1A C66G | 0.308 |
| G1A C75A | 0.161 |
| G1A C75G | 0.108 |
| G1A C85A | 0.0852 |
| G1A C86G | 0.185 |
| G1A G2A | 0.457 |
| G1A G5A | 0.0755 |
| G1A G5U | 0.101 |
| G1A G17U | 0.0449 |
| G1A G29U | 0.0639 |
| G1A G34U | 0.095 |
| G1A G35C | 0.0723 |
| G1A G38A | 0.0332 |
| G1A G38U | 0.0845 |
| G1A G39U | 0.135 |
| G1A G40A | 0.119 |
| G1A G40C | 0.0437 |
| G1A G40U | 0.0615 |
| G1A G53C | 0 |
| G1A G53U | 0.0386 |
| G1A G59A | 0.0573 |
| G1A G59C | 0.229 |
| G1A G59U | 0.214 |

| Variant | self-cleavage |
| --- | --- |
| G1A G67U | 0.297 |
| G1A G68U | 0.178 |
| G1A G73U | 0.0545 |
| G1A G80U | 0.0133 |
| G1A G82A | 0 |
| G1A G82U | 0.095 |
| G1A U23A | 0.217 |
| G1A U37C | 0.217 |
| G1A U37G | 0.158 |
| G1A U46C | 0.208 |
| G1A U60C | 0.166 |
| G1A U65A | 0.0692 |
| G1A U69A | 0.145 |
| G1C | 0.179 |
| G1C A42G | 0 |
| G1C A42U | 0 |
| G1C A45C | 0.145 |
| G1C A56C | 0.172 |
| G1C A56G | 0.356 |
| G1C A70G | 0.453 |
| G1C A70U | 0.115 |
| G1C A77U | 0 |
| G1C A78U | 0.0755 |
| G1C A83C | 0.185 |

| Variant | self-cleavage |
| --- | --- |
| G1C A87G | 0.0712 |
| G1C C3A | 0.234 |
| G1C C4U | 0.0489 |
| G1C C7A | 0.0405 |
| G1C C7U | 0.0475 |
| G1C C13G | 0.0791 |
| G1C C14U | 0.213 |
| G1C C18A | 0.123 |
| G1C C18U | 0.0437 |
| G1C C19U | 0 |
| G1C C26U | 0.0898 |
| G1C C30A | 0.104 |
| G1C C32A | 0 |
| G1C C32U | 0.192 |
| G1C C33A | 0.222 |
| G1C C36G | 0.0437 |
| G1C C48G | 0.346 |
| G1C C57A | 0.284 |
| G1C C61A | 0.208 |
| G1C C63A | 0.201 |
| G1C C63G | 0.0639 |
| G1C G5U | 0.175 |
| G1C G6A | 0.0554 |
| G1C G11U | 0.115 |

| Variant | self-cleavage |
| --- | --- |
| G1C G25C | 0 |
| G1C G28U | 0.107 |
| G1C G31A | 0.0302 |
| G1C G34C | 0.0594 |
| G1C G35U | 0.155 |
| G1C G38A | 0 |
| G1C G39A | 0.203 |
| G1C G39U | 0.116 |
| G1C G53A | 0.193 |
| G1C G55C | 0.214 |
| G1C G55U | 0.203 |
| G1C G68U | 0.17 |
| G1C G73C | 0.142 |
| G1C G76C | 0.237 |
| G1C U9A | 0.0978 |
| G1C U20A | 0 |
| G1C U37A | 0 |
| G1C U46C | 0.229 |
| G1C U47A | 0.256 |
| G1C U60G | 0.0594 |
| G1C U69A | 0.0875 |
| G1C U72A | 0.32 |
| G1C U72C | 0.111 |
| G1U | 0.391 |

| Variant | self-cleavage |
| --- | --- |
| G1U A8C | 0.415 |
| G1U A8G | 0.426 |
| G1U A8U | 0.388 |
| G1U A71C | 0.297 |
| G1U A77U | 0.146 |
| G1U A78C | 0.293 |
| G1U A78U | 0.415 |
| G1U A83U | 0.358 |
| G1U C3G | 1.6 |
| G1U C4G | 0.634 |
| G1U C7U | 0.269 |
| G1U C13U | 0.326 |
| G1U C15A | 0.302 |
| G1U C15G | 0.0852 |
| G1U C15U | 0.269 |
| G1U C18A | 0.304 |
| G1U C18U | 0.315 |
| G1U C19U | 0.28 |
| G1U C24A | 0.183 |
| G1U C24G | 0.447 |
| G1U C26G | 0.469 |
| G1U C33A | 0.295 |
| G1U C36A | 0.158 |
| G1U C41A | 0.496 |

| Variant | self-cleavage |
| --- | --- |
| G1U C44U | 0.252 |
| G1U C48U | 0.415 |
| G1U C49G | 0.181 |
| G1U C57A | 0.423 |
| G1U C57G | 0.196 |
| G1U C57U | 0.428 |
| G1U C61U | 0.377 |
| G1U C64A | 0.453 |
| G1U C64G | 0.432 |
| G1U C66A | 0.535 |
| G1U C66G | 0.211 |
| G1U C75G | 0.162 |
| G1U C84U | 0.389 |
| G1U C85G | 0.383 |
| G1U G2C | 0.519 |
| G1U G2U | 0.366 |
| G1U G5C | 0.755 |
| G1U G5U | 0.402 |
| G1U G6C | 0.656 |
| G1U G10U | 0.336 |
| G1U G17A | 0.212 |
| G1U G28U | 0.295 |
| G1U G34A | 0.298 |
